# Assay results taken from patent US12679878B2, “CRF2 receptor agonists and their use in therapy” (SANOFI, priority 2020, dated 2026).
# Starred links: 1 amine or outer side, 2 acyl side, 3 side chain; linkers in the order of their positions; H or OH if unused. Non-standard residues stand in square brackets, D forms with d. Groups on a side chain read outwards from the residue. No end group written: not given here. *: point of attachment. C18 diacid = O=C(O)CCCCCCCCCCCCCCCCC(=O)*; γGlu = O=C(O)[C@H](CCC(=O)[*:2])N[*:1]; AEEA = NCCOCCOCC(=O)O; Aib = CC(C)(N)C(=O)O
# Target: human corticotropin-releasing factor 2α (CRF2 α receptor) (human), Q13324
# Test: cell-based or functional assay
# Sequence of human corticotropin-releasing factor 2α (CRF2 α receptor) (human), Q13324 (Q13324 20-411): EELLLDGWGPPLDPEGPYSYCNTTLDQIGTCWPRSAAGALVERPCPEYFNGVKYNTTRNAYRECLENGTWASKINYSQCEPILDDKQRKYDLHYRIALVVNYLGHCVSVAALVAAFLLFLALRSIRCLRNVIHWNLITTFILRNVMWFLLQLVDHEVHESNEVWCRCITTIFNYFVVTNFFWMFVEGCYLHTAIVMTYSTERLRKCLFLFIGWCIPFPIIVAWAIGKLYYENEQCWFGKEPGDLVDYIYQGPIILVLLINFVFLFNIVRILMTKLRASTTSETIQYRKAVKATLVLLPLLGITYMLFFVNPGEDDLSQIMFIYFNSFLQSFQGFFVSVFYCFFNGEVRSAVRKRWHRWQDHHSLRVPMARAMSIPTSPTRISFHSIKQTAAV
"EC50 [nM], 0% HSA","EC50 [nM], 0.1% HSA",Binder
0.66 nM,68.9 nM,IVLSLDVPIKLK([AEEA-AEEA-γGlu-C18 diacid])QILLKQERQKKQREKAETNKQILAQV-NH2 (N-terminus assumed; SMILES CC[C@H](C)[C@H](N)C(=O)N[C@H](C(=O)N[C@@H](CC(C)C)C(=O)N[C@@H](CO)C(=O)N[C@@H](CC(C)C)C(=O)N[C@@H](CC(=O)O)C(=O)N[C@H](C(=O)N1CCC[C@H]1C(=O)N[C@H](C(=O)N[C@@H](CCCCN)C(=O)N[C@@H](CC(C)C)C(=O)N[C@@H](CCCCNC(=O)COCCOCCNC(=O)COCCOCCNC(=O)CC[C@H](NC(=O)CCCCCCCCCCCCCCCCC(=O)O)C(=O)O)C(=O)N[C@@H](CCC(N)=O)C(=O)N[C@H](C(=O)N[C@@H](CC(C)C)C(=O)N[C@@H](CC(C)C)C(=O)N[C@@H](CCCCN)C(=O)N[C@@H](CCC(N)=O)C(=O)N[C@@H](CCC(=O)O)C(=O)N[C@@H](CCCNC(=N)N)C(=O)N[C@@H](CCC(N)=O)C(=O)N[C@@H](CCCCN)C(=O)N[C@@H](CCCCN)C(=O)N[C@@H](CCC(N)=O)C(=O)N[C@@H](CCCNC(=N)N)C(=O)N[C@@H](CCC(=O)O)C(=O)N[C@@H](CCCCN)C(=O)N[C@@H](C)C(=O)N[C@@H](CCC(=O)O)C(=O)N[C@H](C(=O)N[C@@H](CC(N)=O)C(=O)N[C@@H](CCCCN)C(=O)N[C@@H](CCC(N)=O)C(=O)N[C@H](C(=O)N[C@@H](CC(C)C)C(=O)N[C@@H](C)C(=O)N[C@@H](CCC(N)=O)C(=O)N[C@H](C(N)=O)C(C)C)[C@@H](C)CC)[C@@H](C)O)[C@@H](C)CC)[C@@H](C)CC)C(C)C)C(C)C) [SEQ ID NO: 112]
0.95 nM,,IVLSLDVPIKLK([AEEA-AEEA-γGlu-C18 diacid])QILLKQERQK[Aib]QREKAETNKQILAQV-NH2 (N-terminus assumed; SMILES CC[C@H](C)[C@H](N)C(=O)N[C@H](C(=O)N[C@@H](CC(C)C)C(=O)N[C@@H](CO)C(=O)N[C@@H](CC(C)C)C(=O)N[C@@H](CC(=O)O)C(=O)N[C@H](C(=O)N1CCC[C@H]1C(=O)N[C@H](C(=O)N[C@@H](CCCCN)C(=O)N[C@@H](CC(C)C)C(=O)N[C@@H](CCCCNC(=O)COCCOCCNC(=O)COCCOCCNC(=O)CC[C@H](NC(=O)CCCCCCCCCCCCCCCCC(=O)O)C(=O)O)C(=O)N[C@@H](CCC(N)=O)C(=O)N[C@H](C(=O)N[C@@H](CC(C)C)C(=O)N[C@@H](CC(C)C)C(=O)N[C@@H](CCCCN)C(=O)N[C@@H](CCC(N)=O)C(=O)N[C@@H](CCC(=O)O)C(=O)N[C@@H](CCCNC(=N)N)C(=O)N[C@@H](CCC(N)=O)C(=O)N[C@@H](CCCCN)C(=O)NC(C)(C)C(=O)N[C@@H](CCC(N)=O)C(=O)N[C@@H](CCCNC(=N)N)C(=O)N[C@@H](CCC(=O)O)C(=O)N[C@@H](CCCCN)C(=O)N[C@@H](C)C(=O)N[C@@H](CCC(=O)O)C(=O)N[C@H](C(=O)N[C@@H](CC(N)=O)C(=O)N[C@@H](CCCCN)C(=O)N[C@@H](CCC(N)=O)C(=O)N[C@H](C(=O)N[C@@H](CC(C)C)C(=O)N[C@@H](C)C(=O)N[C@@H](CCC(N)=O)C(=O)N[C@H](C(N)=O)C(C)C)[C@@H](C)CC)[C@@H](C)O)[C@@H](C)CC)[C@@H](C)CC)C(C)C)C(C)C) [SEQ ID NO: 109]
0.18 nM,,IVLSLDVPIKLK([AEEA-AEEA-γGlu-C18 diacid])QILLKQERQK[Aib]QRQQAETNKQILAQV-NH2 (N-terminus assumed; SMILES CC[C@H](C)[C@H](N)C(=O)N[C@H](C(=O)N[C@@H](CC(C)C)C(=O)N[C@@H](CO)C(=O)N[C@@H](CC(C)C)C(=O)N[C@@H](CC(=O)O)C(=O)N[C@H](C(=O)N1CCC[C@H]1C(=O)N[C@H](C(=O)N[C@@H](CCCCN)C(=O)N[C@@H](CC(C)C)C(=O)N[C@@H](CCCCNC(=O)COCCOCCNC(=O)COCCOCCNC(=O)CC[C@H](NC(=O)CCCCCCCCCCCCCCCCC(=O)O)C(=O)O)C(=O)N[C@@H](CCC(N)=O)C(=O)N[C@H](C(=O)N[C@@H](CC(C)C)C(=O)N[C@@H](CC(C)C)C(=O)N[C@@H](CCCCN)C(=O)N[C@@H](CCC(N)=O)C(=O)N[C@@H](CCC(=O)O)C(=O)N[C@@H](CCCNC(=N)N)C(=O)N[C@@H](CCC(N)=O)C(=O)N[C@@H](CCCCN)C(=O)NC(C)(C)C(=O)N[C@@H](CCC(N)=O)C(=O)N[C@@H](CCCNC(=N)N)C(=O)N[C@@H](CCC(N)=O)C(=O)N[C@@H](CCC(N)=O)C(=O)N[C@@H](C)C(=O)N[C@@H](CCC(=O)O)C(=O)N[C@H](C(=O)N[C@@H](CC(N)=O)C(=O)N[C@@H](CCCCN)C(=O)N[C@@H](CCC(N)=O)C(=O)N[C@H](C(=O)N[C@@H](CC(C)C)C(=O)N[C@@H](C)C(=O)N[C@@H](CCC(N)=O)C(=O)N[C@H](C(N)=O)C(C)C)[C@@H](C)CC)[C@@H](C)O)[C@@H](C)CC)[C@@H](C)CC)C(C)C)C(C)C) [SEQ ID NO: 110]

# Further lines, the binder ahead of its results:
Binder,"EC50 [nM], 0% HSA","EC50 [nM], 0.1% HSA"
IVLSLDVPIKLK([AEEA-AEEA-γGlu-C18 diacid])QILLKQERQK[Aib]QREQAETNKQILERV-NH2 (N-terminus assumed; SMILES CC[C@H](C)[C@H](N)C(=O)N[C@H](C(=O)N[C@@H](CC(C)C)C(=O)N[C@@H](CO)C(=O)N[C@@H](CC(C)C)C(=O)N[C@@H](CC(=O)O)C(=O)N[C@H](C(=O)N1CCC[C@H]1C(=O)N[C@H](C(=O)N[C@@H](CCCCN)C(=O)N[C@@H](CC(C)C)C(=O)N[C@@H](CCCCNC(=O)COCCOCCNC(=O)COCCOCCNC(=O)CC[C@H](NC(=O)CCCCCCCCCCCCCCCCC(=O)O)C(=O)O)C(=O)N[C@@H](CCC(N)=O)C(=O)N[C@H](C(=O)N[C@@H](CC(C)C)C(=O)N[C@@H](CC(C)C)C(=O)N[C@@H](CCCCN)C(=O)N[C@@H](CCC(N)=O)C(=O)N[C@@H](CCC(=O)O)C(=O)N[C@@H](CCCNC(=N)N)C(=O)N[C@@H](CCC(N)=O)C(=O)N[C@@H](CCCCN)C(=O)NC(C)(C)C(=O)N[C@@H](CCC(N)=O)C(=O)N[C@@H](CCCNC(=N)N)C(=O)N[C@@H](CCC(=O)O)C(=O)N[C@@H](CCC(N)=O)C(=O)N[C@@H](C)C(=O)N[C@@H](CCC(=O)O)C(=O)N[C@H](C(=O)N[C@@H](CC(N)=O)C(=O)N[C@@H](CCCCN)C(=O)N[C@@H](CCC(N)=O)C(=O)N[C@H](C(=O)N[C@@H](CC(C)C)C(=O)N[C@@H](CCC(=O)O)C(=O)N[C@@H](CCCNC(=N)N)C(=O)N[C@H](C(N)=O)C(C)C)[C@@H](C)CC)[C@@H](C)O)[C@@H](C)CC)[C@@H](C)CC)C(C)C)C(C)C) [SEQ ID NO: 107],0.81 nM,16.1 nM
IVLSLDVPIKLK([AEEA-AEEA-γGlu-C18 diacid])QILLKQERQK[Aib]QRQKAETNKQILAQV-NH2 (N-terminus assumed; SMILES CC[C@H](C)[C@H](N)C(=O)N[C@H](C(=O)N[C@@H](CC(C)C)C(=O)N[C@@H](CO)C(=O)N[C@@H](CC(C)C)C(=O)N[C@@H](CC(=O)O)C(=O)N[C@H](C(=O)N1CCC[C@H]1C(=O)N[C@H](C(=O)N[C@@H](CCCCN)C(=O)N[C@@H](CC(C)C)C(=O)N[C@@H](CCCCNC(=O)COCCOCCNC(=O)COCCOCCNC(=O)CC[C@H](NC(=O)CCCCCCCCCCCCCCCCC(=O)O)C(=O)O)C(=O)N[C@@H](CCC(N)=O)C(=O)N[C@H](C(=O)N[C@@H](CC(C)C)C(=O)N[C@@H](CC(C)C)C(=O)N[C@@H](CCCCN)C(=O)N[C@@H](CCC(N)=O)C(=O)N[C@@H](CCC(=O)O)C(=O)N[C@@H](CCCNC(=N)N)C(=O)N[C@@H](CCC(N)=O)C(=O)N[C@@H](CCCCN)C(=O)NC(C)(C)C(=O)N[C@@H](CCC(N)=O)C(=O)N[C@@H](CCCNC(=N)N)C(=O)N[C@@H](CCC(N)=O)C(=O)N[C@@H](CCCCN)C(=O)N[C@@H](C)C(=O)N[C@@H](CCC(=O)O)C(=O)N[C@H](C(=O)N[C@@H](CC(N)=O)C(=O)N[C@@H](CCCCN)C(=O)N[C@@H](CCC(N)=O)C(=O)N[C@H](C(=O)N[C@@H](CC(C)C)C(=O)N[C@@H](C)C(=O)N[C@@H](CCC(N)=O)C(=O)N[C@H](C(N)=O)C(C)C)[C@@H](C)CC)[C@@H](C)O)[C@@H](C)CC)[C@@H](C)CC)C(C)C)C(C)C) [SEQ ID NO: 108],0.23 nM,
IVLSLDVPIKLK([AEEA-AEEA-γGlu-C18 diacid])QILLEQERQK[Aib]QREQAETNKQILERV-NH2 (N-terminus assumed; SMILES CC[C@H](C)[C@H](N)C(=O)N[C@H](C(=O)N[C@@H](CC(C)C)C(=O)N[C@@H](CO)C(=O)N[C@@H](CC(C)C)C(=O)N[C@@H](CC(=O)O)C(=O)N[C@H](C(=O)N1CCC[C@H]1C(=O)N[C@H](C(=O)N[C@@H](CCCCN)C(=O)N[C@@H](CC(C)C)C(=O)N[C@@H](CCCCNC(=O)COCCOCCNC(=O)COCCOCCNC(=O)CC[C@H](NC(=O)CCCCCCCCCCCCCCCCC(=O)O)C(=O)O)C(=O)N[C@@H](CCC(N)=O)C(=O)N[C@H](C(=O)N[C@@H](CC(C)C)C(=O)N[C@@H](CC(C)C)C(=O)N[C@@H](CCC(=O)O)C(=O)N[C@@H](CCC(N)=O)C(=O)N[C@@H](CCC(=O)O)C(=O)N[C@@H](CCCNC(=N)N)C(=O)N[C@@H](CCC(N)=O)C(=O)N[C@@H](CCCCN)C(=O)NC(C)(C)C(=O)N[C@@H](CCC(N)=O)C(=O)N[C@@H](CCCNC(=N)N)C(=O)N[C@@H](CCC(=O)O)C(=O)N[C@@H](CCC(N)=O)C(=O)N[C@@H](C)C(=O)N[C@@H](CCC(=O)O)C(=O)N[C@H](C(=O)N[C@@H](CC(N)=O)C(=O)N[C@@H](CCCCN)C(=O)N[C@@H](CCC(N)=O)C(=O)N[C@H](C(=O)N[C@@H](CC(C)C)C(=O)N[C@@H](CCC(=O)O)C(=O)N[C@@H](CCCNC(=N)N)C(=O)N[C@H](C(N)=O)C(C)C)[C@@H](C)CC)[C@@H](C)O)[C@@H](C)CC)[C@@H](C)CC)C(C)C)C(C)C) [SEQ ID NO: 106],0.53 nM,13.2 nM
